From article PMC11216086, “The structure of TRAF7 coiled-coil trimer provides insight into its function in zebrafish embryonic development” (Journal of Molecular Cell Biology, 2024)
Where a chain is given by its changes, count along the chain named.

B1: human TRAF7 ZF-CC (fragment 221–379 aa) (domain or fragment, UniProt Q6Q0C0 221-379, looked up)
chain: DHEGSCDYRPVRCPNNPSCPPLLRMNLEAHLKECEHIKCPHSKYGCTFIGNQDTYETHLETCRFEGLKEFLQQTDDRFHEMHVALAQKDQEIAFLRSMLGKLSEKIDQLEKSLELKFDVLDENQSKLSEDLMEFRRDASMLNDELSHINARLNMGILGS
notes: source: E. coli BL21 (DE3), purified (nickel-NTA, Superdex 200 size-exclusion chromatography)
B2: human TRAF7 CC (270–379 aa) F337S (domain or fragment, UniProt Q6Q0C0 270-379, looked up)
chain: GNQDTYETHLETCRFEGLKEFLQQTDDRFHEMHVALAQKDQEIAFLRSMLGKLSEKIDQLEKSLELKSDVLDENQSKLSEDLMEFRRDASMLNDELSHINARLNMGILGS
notes: as for B1
B3: human TRAF7 CC (fragment 270–379 aa) (domain or fragment, UniProt Q6Q0C0 270-379, looked up)
chain: B2 chain with S68F
notes: Cloned in pET32M3C; tags 'were cleaved by HRV 3C protease when needed'; also called TRAF7 CC region; TRAF7 coiled-coil domain; source: E. coli BL21 (DE3), purified (nickel-NTA, Superdex 200 size-exclusion chromatography)
B4: human TRAF7 CC (270–379 aa) R371G (domain or fragment, UniProt Q6Q0C0 270-379, looked up)
chain: B2 chain with S68F, R102G
notes: Variant found in patients with developmental disorders; source: E. coli BL21 (DE3), purified (nickel-NTA, Superdex 200 size-exclusion chromatography)
B5: human TRAF7 CC (270–379 aa) Q310L (domain or fragment, UniProt Q6Q0C0 270-379, looked up)
chain: B2 chain with Q41L, S68F
notes: as for B1
B6: human TRAF7 CC (270–379 aa) K346E (domain or fragment, UniProt Q6Q0C0 270-379, looked up)
chain: B2 chain with S68F, K77E
notes: as for B4
B7: human TRAF7 CC (270–379 aa) I368S (domain or fragment, UniProt Q6Q0C0 270-379, looked up)
chain: B2 chain with S68F, I99S
notes: as for B1

Biological target: the molecule itself
Assay: SEC-MALS; Superdex 200 gel filtration in 50 mM Tris pH 8.0, 100 mM NaCl, 10 mM EDTA, 1 mM DTT; three-angle light scattering (mini-DAWN TRISTAR) and refractive index detector; self-association (trimer)

Protein | stoichiometry N | binding result
B1 | 3 | 
B2 |  | binds
B3 | 3 | 
B4 |  | binds
B5 |  | binds
B6 |  | binds
B7 |  | binds
